# Measured values published in patent US20110118131A1 (published 2011).
# Where a chain is given by its changes, count along the chain named. In names and notes the source's numbering stands.
# B1: XPA23 Fab, heavy chain T58F (Fab, V domains shown)
# VH: EVQLLESGGGLVQPGGSLRLSCAASGFTFSKYFMFWVRQAPGKGLEWVSVISPSGGMFRYADSVKGRFTISRDNSKNTLYLQMNSLRAEDTAVYYCARVGYGGNSDYWGQGTLVTVSS
# VL: DIQMTQSPSSVSASVGDRLTIICRASQDINRWLAWYQQTPGNAPKLLIHSATSLQSGVPSRFSGSGSGTDFTLTINSLQPEDFATYYCQQADSFPLTFGGGTKVEIK
# B2: XPA23 Fab, heavy chain T58K (Fab, V domains shown)
# VH: B1 VH with F58K
# VL: B1 VL
# B3: XPA23 Fab, heavy chain Y32Q (Fab, V domains shown)
# VH: B1 VH with Y32Q, F58T
# VL: B1 VL
# B4: XPA23 Fab, heavy chain V99S (Fab, V domains shown)
# VH: B1 VH with F58T, V99S
# VL: B1 VL
# B5: XPA23 Fab, heavy chain V50S (Fab, V domains shown)
# VH: B1 VH with V50S, F58T
# VL: B1 VL
# B6: XPA23 Fab, heavy chain V99F (Fab, V domains shown)
# VH: B1 VH with F58T, V99F
# VL: B1 VL
# B7: XPA23 Fab, heavy chain Y107F (Fab, V domains shown)
# VH: B1 VH with F58T, Y107F
# VL: B1 VL
# B8: XPA23 Fab, heavy chain Y32H (Fab, V domains shown)
# VH: B1 VH with Y32H, F58T
# VL: B1 VL
# B9: XPA23 Fab, heavy chain V99N (Fab, V domains shown)
# VH: B1 VH with F58T, V99N
# VL: B1 VL
# B10: XPA23 Fab, heavy chain Y32E (Fab, V domains shown)
# VH: B1 VH with Y32E, F58T
# VL: B1 VL
# B11: XPA23 Fab, heavy chain T58N (Fab, V domains shown)
# VH: B1 VH with F58N
# VL: B1 VL
# B12: XPA23 Fab, heavy chain Y107H (Fab, V domains shown)
# VH: B1 VH with F58T, Y107H
# VL: B1 VL
# B13: XPA23 Fab, heavy chain V50F (Fab, V domains shown)
# VH: B1 VH with V50F, F58T
# VL: B1 VL
# B14: XPA23 Fab, heavy chain Y107D (Fab, V domains shown)
# VH: B1 VH with F58T, Y107D
# VL: B1 VL
# B15: XPA23 Fab, heavy chain Y101F (Fab, V domains shown)
# VH: B1 VH with F58T, Y101F
# VL: B1 VL
# B16: XPA23 Fab, heavy chain Y107E (Fab, V domains shown)
# VH: B1 VH with F58T, Y107E
# VL: B1 VL
# B17: XPA23 Fab, heavy chain V50Y (Fab, V domains shown)
# VH: B1 VH with V50Y, F58T
# VL: B1 VL
# B18: XPA23 Fab, heavy chain T58R (Fab, V domains shown)
# VH: B1 VH with F58R
# VL: B1 VL
# B19: XPA23 Fab, heavy chain Y107N (Fab, V domains shown)
# VH: B1 VH with F58T, Y107N
# VL: B1 VL
# B20: XPA23 Fab, heavy chain V50K (Fab, V domains shown)
# VH: B1 VH with V50K, F58T
# VL: B1 VL
# B21: XPA23 Fab, heavy chain Y107K (Fab, V domains shown)
# VH: B1 VH with F58T, Y107K
# VL: B1 VL
# B22: XPA23 Fab, heavy chain Y101H (Fab, V domains shown)
# VH: B1 VH with F58T, Y101H
# VL: B1 VL
# B23: XPA23 Fab, heavy chain V50Q (Fab, V domains shown)
# VH: B1 VH with V50Q, F58T
# VL: B1 VL
# B24: XPA23 Fab, heavy chain Y101N (Fab, V domains shown)
# VH: B1 VH with F58T, Y101N
# VL: B1 VL
# B25: XPA23 Fab, heavy chain V50H (Fab, V domains shown)
# VH: B1 VH with V50H, F58T
# VL: B1 VL
# B26: XPA23 Fab, heavy chain Y101R (Fab, V domains shown)
# VH: B1 VH with F58T, Y101R
# VL: B1 VL
# B27: XPA23 Fab, heavy chain Y101E (Fab, V domains shown)
# VH: B1 VH with F58T, Y101E
# VL: B1 VL
# B28: XPA23 Fab, heavy chain T58H (Fab, V domains shown)
# VH: B1 VH with F58H
# VL: B1 VL
# B29: XPA23 Fab, heavy chain Y101D (Fab, V domains shown)
# VH: B1 VH with F58T, Y101D
# VL: B1 VL
# B30: XPA23 Fab, heavy chain V50D (Fab, V domains shown)
# VH: B1 VH with V50D, F58T
# VL: B1 VL
# B31: XPA23 Fab, heavy chain V99Q (Fab, V domains shown)
# VH: B1 VH with F58T, V99Q
# VL: B1 VL
# B32: XPA23 Fab, heavy chain V50R (Fab, V domains shown)
# VH: B1 VH with V50R, F58T
# VL: B1 VL
# B33: XPA23 Fab, heavy chain Y32N (Fab, V domains shown)
# VH: B1 VH with Y32N, F58T
# VL: B1 VL
# B34: XPA23 Fab, heavy chain V50W (Fab, V domains shown)
# VH: B1 VH with V50W, F58T
# VL: B1 VL
# B35: XPA23 Fab, heavy chain V99K (Fab, V domains shown)
# VH: B1 VH with F58T, V99K
# VL: B1 VL
# B36: XPA23 Fab, heavy chain Y101Q (Fab, V domains shown)
# VH: B1 VH with F58T, Y101Q
# VL: B1 VL
# B37: XPA23 Fab, heavy chain Y101W (Fab, V domains shown)
# VH: B1 VH with F58T, Y101W
# VL: B1 VL
# B38: XPA23 Fab, heavy chain T58W (Fab, V domains shown)
# VH: B1 VH with F58W
# VL: B1 VL
# B39: XPA23 Fab, heavy chain T58Q (Fab, V domains shown)
# VH: B1 VH with F58Q
# VL: B1 VL
# B40: XPA23 Fab, heavy chain T58Y (Fab, V domains shown)
# VH: B1 VH with F58Y
# VL: B1 VL
# B41: XPA23 Fab, heavy chain V99E (Fab, V domains shown)
# VH: B1 VH with F58T, V99E
# VL: B1 VL
# B42: XPA23 Fab, heavy chain T58S (Fab, V domains shown)
# VH: B1 VH with F58S
# VL: B1 VL
# B43: XPA23 Fab, heavy chain Y32F (Fab, V domains shown)
# VH: B1 VH with Y32F, F58T
# VL: B1 VL
# B44: XPA23 Fab, heavy chain V50E (Fab, V domains shown)
# VH: B1 VH with V50E, F58T
# VL: B1 VL
# B45: XPA23 Fab, heavy chain Y32D (Fab, V domains shown)
# VH: B1 VH with Y32D, F58T
# VL: B1 VL
# B46: XPA23 Fab, heavy chain Y32S (Fab, V domains shown)
# VH: B1 VH with Y32S, F58T
# VL: B1 VL
# Biological target: T1, IL-1beta (UniProt P01584 117-269)
# T1 construct: also called IL-1β
# Test: Biacore
fold difference in affinity vs parental [fold],binding result,Binder
1.04,–,B1
–,no binding,B2
–,no binding,B3
–,no binding,B4
–,no binding,B5
0.03,–,B6
0.9,–,B7
0.62,–,B8
–,no binding,B9
0.12,–,B10
0.9,–,B11
–,no binding,B12
–,no binding,B13
0.85,–,B14
0.85,–,B15
0.9,–,B16
–,no binding,B17
1.14,–,B18
–,no binding,B19
–,no binding,B20
0.82,–,B21
0.04,–,B22
–,no binding,B23

fold difference in affinity vs parental [fold],binding result,Binder
0.06,–,B24
–,no binding,B25
0.85,–,B26
0.03,–,B27
0.98,–,B28
–,no binding,B29
–,no binding,B30
–,no binding,B31
–,no binding,B32
0.04,–,B33
–,no binding,B34
–,no binding,B35
0.06,–,B36
0.81,–,B37
0.93,–,B38
–,no binding,B39
1.01,–,B40
–,no binding,B41
0.82,–,B42
0.75,–,B43
–,no binding,B44
0.68,–,B45
1.33,–,B46
